The test system of test [1] is HMGB1 domains (A box, B box, acidic tail). The experiment in a line: Immunofluorescence of HMGB1-GFP domain constructs upon protein VII-HA expression. The following applies: A549 cells, 2 days after transfection. Format: cell-based. On the procedure:
Cells were grown on glass coverslips in 24-well plates and either infected or induced with doxycycline (0.2 μg/mL). Cells were harvested for immunofluorescence at the indicated time points, washed in phosphate-buffered saline (PBS), fixed in 4% paraformaldehyde for 15 minutes and post-fixed with 100% ice-cold methanol for 5 minutes. Coverslips were then blocked and stained as described (Lilley et al. (2011) PLoS Pathog., 7:e1002084) and mounted using ProLong Gold Antifade Reagent (Life Technologies). Immunofluorescence was visualized using a Zeiss LSM Confocal microscope and ZEN 2011 software. Images were processed using ImageJ and assembled with Adobe CS6. All scale bars show in the Figures are 10 μm unless otherwise stated.
FIG. 8A provides a schematic of the different GFP constructs expressing distinct HMGB1 domains. […] Immunofluorescence of the HMGB1-GFP constructs 2 days after transfection of A549s cells under control conditions or upon expression of Ad5 protein VII-HA is shown in FIG. 8B. […] Only full-length HMGB1 and the HMGB1 A box are relocalized upon expression of protein VII. […] Next we tested the immobilization of this construct in chromatin upon protein VII expression.

For test [2], the target named is T1, HMGB1 full-length and domains (Homo sapiens, UniProt P09429).
T1 construct: recombinant GST constructs encoding full-length HMGB1 or distinct HMGB1 domains
T1 sequence (P09429 1-215): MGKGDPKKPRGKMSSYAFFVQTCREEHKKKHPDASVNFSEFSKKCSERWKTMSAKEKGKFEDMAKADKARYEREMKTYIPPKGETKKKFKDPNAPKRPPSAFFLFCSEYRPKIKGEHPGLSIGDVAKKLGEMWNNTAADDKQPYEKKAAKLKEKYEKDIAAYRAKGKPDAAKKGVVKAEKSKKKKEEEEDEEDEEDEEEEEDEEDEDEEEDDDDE
The experiment in a line: In vitro GST pull down of recombinant GST-HMGB1 constructs with protein VII. Format: binding.

Test [3] concerns HMGB1 full-length and domains. The test is described as above. Format: binding.
The next test deals with cellular chromatin. The experiment in a line: Chromatin appearance in inducible cell lines (immunofluorescence, DAPI). Format: cell-based. The following applies: inducible expression. An excerpt:
Primary small airway epithelial cells (SAECs), U2OS, HeLa, 293, THP-1 and A549 cells were obtained from the American Tissue Culture Collection (ATCC) and grown according to the provider's instructions. Acceptor cells for generation of inducible cell lines were used as reported (Khandelia et al. (2011) Proc. Natl. Acad. Sci., 108:12799-12804). Protein VII, preVII and V were cloned from genomic DNA isolated from HeLa cells infected with adenovirus type 5 and inserted into the inducible plasmid cassette with a C-terminal HA tag using restriction enzymes BsrGI and AgeI. Positive clones were selected in DH5a cells, sequenced, and transfected into A549, U2OS or HeLa acceptor cells along with plasmid expressing the Cre recombinase. Recombined clones were selected by puromycin resistance (1 μg/mL) and induced with doxycycline (0.2 μg/mL) to express the desired protein. Protein expression was verified by immunofluorescence and western blot. All figures shown are after 4 days of induction unless otherwise stated. Protein VII and preVII were also verified by HPLC purification and mass spectrometry analysis. Point mutations were generated by gene synthesis from Genewiz.
Cells were grown on glass coverslips in 24-well plates and either infected or induced with doxycycline (0.2 μg/mL). […]

Test [4] addresses T2, HMGB1 (Homo sapiens, UniProt P09429).
T2 sequence (P09429 1-215): T1 sequence (P09429 1-215)
Kind of test: GFP immunoprecipitation from A549 cells transfected with protein VII-GFP constructs. Conditions: A549 cells transfected 24 hours. Format: cell-based. Set-up: endogenous in cells; host or cells: A549. On the procedure: We further narrowed down this binding region through expression of protein VII peptides tagged with GFP. […] Cellular fractionation of A549 cells transfected for 24 hours with GFP and the different protein VII constructs is shown in FIG. 7C.

For test [5], the target named is T2, HMGB1. The experiment in a line: Salt fractionation of nuclei, western blot for HMGB1. Format: cell-based. Set-up: endogenous in cells; host or cells: A549 (also 293 / 293-Cre in the salt fractionation). Conditions: for Chromatin association of HMGB1 (retention in high salt fractions): A549 cells, doxycycline-induced expression. On the procedure: Salt fractionation of nuclei was adapted from established protocols (Zaret, K. (2005) Micrococcal nuclease analysis of chromatin structure. Curr. Protoc. Mol., Biol. Chapter 21, Unit 21.1; Teves et al. (2012) Methods Mol. Biol., 833:421-432). Briefly, 2-4×10^7 cells were collected and resuspended in 2 mL of ice-cold buffer I (0.32 M sucrose, 60 mM KCl, 15 mM NaCl, 5 mM MgCl2, 0.1 mM EGTA, 15 mM Tris, pH 7.5, 0.5 mM DTT, 0.1 mM PMSF and protease inhibitor cocktail from Roche). To dissolve the plasma membrane, 2 mL ice-cold buffer I supplemented with 0.1% IGEPAL were added and samples were incubated on ice for 10 minutes. The 4 mL of nuclei was layered on 8 mL of ice-cold buffer II (1.2 M sucrose, 60 mM KCl, 15 mM NaCl, 5 mM MgCl2, 0.1 mM EGTA, 15 mM Tris, pH 7.5, 0.5 mM DTT, 0.1 mM PMSF and protease inhibitor cocktail from Roche) and centrifuged for 20 minutes at 10,000×g and 4° C. The pelleted nuclei were resuspended in 400 μL buffer III (10 mM Tris pH 7.4, 2 mM MgCl2, 0.1 mM PMSF) supplemented with 5 mM CaCl2 and the DNA was digested to mononucleosomes by addition of 1 unit of MNase (Sigma-Aldrich, N3755). The reaction was incubated at 37° C. for 30 minutes and then stopped by addition of 25 μL of 0.1M EGTA. The samples were centrifuged for 10 minutes, 350×g, at 4° C., and supernatants were set aside for western blot analysis. The pellet was resuspended in 400 μL of buffer IV (70 mM NaCl, 10 mM Tris pH 7.4, 2 mM MgCl2, 2 mM EGTA, 0.1% Triton X-100, 0.1 mM PMSF) with 80 mM salt and rotated for 30 minutes at 4° C. The sample was centrifuged for 10 minutes at 350×g, 4° C., and the supernatant collected for western blot analysis. This step was repeated for salt concentrations in buffer IV of 150 mM, 300 mM and 600 mM. The final pellet was resuspended in 400 μL ddH2O and all samples were analyzed together by western blot. An aliquot of each supernatant was set aside for DNA purification using a PCR purification kit (Qiagen) and analyzed by agarose gel electrophoresis. […]

B1: protein VII: mature protein VII of human adenovirus type 5 (SEQ ID NO:1), expressed in cells, mostly with C-terminal HA tag (protein)
chain: AKKRSDQHPVRVRGHYRAPWGAHKRGRTGRTTVDDAIDAVVEEARNYTPTPPPVSTVDAAIQTVVRGARRYAKMKRRRRRVARRHRRRPGTAAQRAAAALLNRARRTGRRAAMRAARRLAAGIVTVPPRSRRRAAAAAAAAISAMTQGRRGNVYWVRDSVSGLRVPVRTRPPRN
modifications: C-terminal HA tag; Human adenovirus 5
On to B1, for which the “Relocalization of HMGB1 A box” value in test [1] is reported as “relocalizes”. Moreover, the “Pull-down by full-length HMGB1 construct in vitro” value in test [2] was “able to also pull-down protein VII”. Further, in test [3], the “Binding to HMGB1 acidic tail (C-terminus) in vitro” value is listed as “binds”. Further, the “Effect on chromatin appearance” value with cellular chromatin is listed as “altered nuclear DNA into a punctate appearance”. Moreover, the “Pull-down of HMGB1 by GFP immunoprecipitation” value in the test with HMGB1 [4] is “able to pull-down HMGB1”. Also, the “Retention of HMGB1 in the 600 mM high-salt fraction” value with HMGB1 [5] (A549 cells transfected 24 hours with GFP-tagged constructs) was “retention of HMGB1”. Besides, the “Chromatin association of HMGB1 (retention in high salt fractions)” value is reported as “Increased chromatin association” with HMGB1 [5] and “retention in the high salt chromatin fractions” with HMGB1 [5] (listed as Ad5 protein VII).

For the origin of these results see patent US20190276499A1, “Protein VII Fragments and Methods of Use Thereof for the Treatment of Inflammatory Disorders” (priority 2016, published 2019).
